± gives the standard deviation.
Assay: protein stability index of a GFP-peptide fusion (GPS, HEK-293T) (PSI 1-6); higher = more stable
[1] = treatment: DMSO, c terminus: a fixed tail appended
[2] = treatment: MLN4924 1 uM, 8 h, c terminus: a fixed tail appended
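Note: 24-mer peptide tiles fused after GFP, lentivirally expressed, FACS-sorted into six equal bins by GFP/DsRed ratio, decoded by Illumina sequencing, PSI is the read-weighted mean bin number.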

Row | Sequence | protein stability index [1] | protein stability index [2] | protein stability index (treatment: DMSO, c terminus: native) | protein stability index (treatment: MLN4924 1 uM, 8 h, c terminus: native)
1 | TTTVCLVAAALRYLQIFATRRSCI [FAM189A2] | 2.98 ± 0.42 | 2.89 ± 0.25 | – | –
2 | AYLVPYLVLLIIIGIPLFFLELAV [SLC6A17] | 3.83 ± 0.52 | 2.87 ± 0.28 | – | –
3 | AKNFHVKAVMKTSVLLSWEIPENY [PTPRD] | 2.89 ± 0.27 | – | – | –
4 | LSGVSQLLPKSRENYLNRCMDQER [FCHO1] | 3.78 ± 0.21 | 3.95 ± 0.14 | – | –
5 | SELTRLIQRIRSEIENVKKQASNL [KRT71] | 2.09 ± 0.068 | 2.22 ± 0.21 | – | –
6 | QDELRNRSVKVICLGSLASKLSRK [FAN1] | 2.96 ± 0.32 | 3.17 ± 0.36 | – | –
7 | ESTTVVTTQSAEVGAAETTLTELR [KRT18] | 5.37 ± 0.076 | 5.29 ± 0.22 | – | –
8 | VPWESDIWDINNQICTVKDIKAEP [ATF6] | 4.02 ± 0.24 | 3.9 ± 0.25 | – | –
9 | MSDTAVADTRRLNSKPQDLTDAYG [SNX12] | 4.96 ± 0.24 | 5.06 ± 0.14 | – | –
10 | NWLIKYDCPMDSSSSRDTDWVVVK [PI4K2A] | 2.83 ± 0.77 | 3.1 ± 0.17 | – | –
11 | PPETTETPKCSSPRGQEGSRQDKP [YJU2B] | 5.5 ± 0.36 | 5.54 ± 0.26 | – | –
12 | PDHFDTAILFTRQDLCGVSTCDTL [ADAMTS4] | 2.83 ± 0.21 | 2.94 ± 0.4 | – | –
13 | SISRGRHARTHPQTALLESSCENK [MATN2] | 4.87 ± 0.22 | 4.88 ± 0.27 | – | –
14 | MVESRYALLIVDSATALYRTDYSG [RAD51] | 3 ± 0.79 | 2.86 ± 0.71 | – | –
15 | TKGEEISVYVKLAGEREDLWAGSK [MIA2] | 3.36 ± 0.6 | 3.83 ± 0.19 | – | –
16 | LLKSHTNVLSVNLPDNFTLKEDGM [TPH1] | 3.15 ± 0.24 | 3.22 ± 0.34 | – | –
17 | KVIYLDDDVIVQGDIQELYDTTLA [GLT8D2] | 2.65 ± 0.36 | 2.94 ± 0.29 | – | –

Row | Sequence | protein stability index [1] | protein stability index [2] | protein stability index (treatment: DMSO, c terminus: native) | protein stability index (treatment: MLN4924 1 uM, 8 h, c terminus: native)
18 | FSSNIHTYHVGKQCFFNGVFLGNK [SPATS1] | 2.56 ± 0.39 | 2.05 ± 0.32 | – | –
19 | VQLSQIQGLIGSVEEQLAQLRCEM [KRT17] | 3.04 ± 0.36 | 2.79 ± 0.32 | – | –
20 | RYGRRTAIILSSCLLGLGSLVLIL [SLC2A12] | 5.23 ± 0.14 | 5.1 ± 0.14 | – | –
21 | RRALAPPSAGFRCCAAPGPHVALA [ANKRD9] | 1.98 ± 0.47 | 2.25 ± 0.31 | – | –
22 | QWWNAVFIMLLIGIVLPVFYLVYF [LYSMD4] | 2.2 ± 0.16 | 2.14 ± 0.17 | – | –
23 | RDVAAEAVARSPKRPAWGSRRFEA [POMT2] | 3.73 ± 0.23 | 3.94 ± 0.085 | – | –
24 | AEADEPTTHFQSIPDAFWWAVVTM [KCNA4] | 2.04 ± 0.76 | 2.11 ± 0.22 | – | –
25 | LVLLRDGRTLIGFLRSIDQFANLV [LSM1] | 2.23 ± 0.52 | 2.47 ± 0.47 | – | –
26 | QEKARQLLGRLKPSHTSRTLILS [MYBL2] | – | – | 2.12 ± 0.29 | 2.32 ± 0.042
27 | ARHFNYVGDLMGSLAYCLACGGGH [DHCR7] | 2.9 ± 0.71 | 2.68 ± 0.53 | – | –
28 | SPTDIQDSSIIRTTQDLFAINRDT [RHOBTB3] | 4.47 ± 0.15 | 4.67 ± 0.44 | – | –
29 | KSITSAMNELQHDLDVVSDALAKV [TPH1] | 4.4 ± 0.18 | 4.47 ± 0.12 | – | –
30 | QMQEDNSSFSLLLDLLSELYQKQP [INTS3] | 2.38 ± 0.16 | 2.37 ± 0.31 | – | –
31 | GQPAPVSMVPPSPAMAASKALGSD [SNAP91] | 5.02 ± 0.32 | 5.01 ± 0.18 | – | –
32 | RDIQDENQLLVADVKRLGKQNARF [STX11] | 4.21 ± 0.32 | 4.44 ± 0.18 | – | –
33 | NSSGDIGKKEIKPFKRFLRKKSKP [SMOC2] | 4.15 ± 0.4 | 4.19 ± 0.68 | – | –
34 | ERSARYQYFVVDPMAEYNMPQYIL [PTPRD] | 2.01 ± 0.28 | 2.74 ± 0.99 | – | –

Reference: the supplement of paper PMC10567573
